Results on one substance are retold here after PMC11023358.

The test concerns the target H2A.Z variant containing recombinant nucleosomes (UniProt P0C0S5). Kind of test: pull-down; nucleosomes (2.5 μg) pre-bound to Dynabeads M-280 streptavidin; CFDP1 protein (10 μm) added; 4 h at 4°C; 20 mM Hepes pH 8.0, 150 mM NaCl, 0.2 mM EDTA, 20% glycerol, 0.1% NP40, 1 mM DTT; wash with 200 mM NaCl; immunoblot, normalized to H4.

For “HIS tagged full-length CFDP1 protein (mouse craniofacial development protein 1) (from UniProt O88271 1-295) (natural protein)”, the fold binding over H2A canonical nucleosomes (normalized to H4 levels) was found to be 3.3 fold.
